Molecular target: mitoribosomal protein uS12m (human (endogenous in HEK293T), UniProt O15235 30-138)
Assay: cryo-EM structure; recombinant mtIF2 (1 µM) preincubated with GDPNP (2.5 mM), added to the mtIF3-bound mtSSU eluate with fMet-tRNA (1 µM) and MT-CO2 mRNA (1 µM), 30 min at room temperature, buffer A (25 mM HEPES-KOH pH 7.5, 5.0 mM Mg(OAc)2, 100 mM KCl, 0.05% β-DDM)
Conditions: both partners purified

binding result: binds
B1: recombinant human mtIF2 (amino acids 38-727) (natural protein)
chain: SSAYPVWTAQLCAWPWPTDVLTGAALSQYRLLVTKKEEGPWKSQLSSTKSKKVVEVWIGMTIEELARAMEKNTDYVYEALLNTDIDIDSLEADSHLDEVWIKEVITKAGMKLKWSKLKQDKVRKNKDAVRRPQADPALLTPRSPVVTIMGHVDHGKTTLLDKFRKTQVAAVETGGITQHIGAFLVSLPSGEKITFLDTPGHAAFSAMRARGAQVTDIVVLVVAADDGVMKQTVESIQHAKDAQVPIILAVNKCDKAEADPEKVKKELLAYDVVCEDYGGDVQAVPVSALTGDNLMALAEATVALAEMLELKADPNGPVEGTVIESFTDKGRGLVTTAIIQRGTLRKGSVLVAGKCWAKVRLMFDENGKTIDEAYPSMPVGITGWRDLPSAGEEILEVESEPRAREVVDWRKYEQEQEKGQEDLKIIEEKRKEHKEAHQKAREKYGHLLWKKRSILRFLERKEQIPLKPKEKRERDSNVLSVIIKGDVDGSVEAILNIIDTYDASHECELELVHFGVGDVSANDVNLAETFDGVIYGFNVNAGNVIQQSAAKKGVKIKLHKIIYRLVEDLQEELSSRLPCAVEEHPVGEASILATFSVTEGKKKVPVAGCRVQKGQLEKQKKFKLTRNGHVIWKGSLTSLKHHKDDISIVKTGMDCGLSLDEDNMEFQVGDRIVCYEEKQIQAKTSWDPGF
notes: mitochondrial translation initiation factor 2 (mtIF2), human, mature form, amino acids 38-727, codon-optimised construct in pET-24b; also called mtIF2-GDPNP; source: E. coli Rosetta 2, purified (His-Select Ni2+ resin, Superdex 200)

Source: paper PMC7287080, “Distinct pre-initiation steps in human mitochondrial translation” (Nature Communications, 2020)
